Data from the supplement of paper PMC9112550, “Optimization of the antimicrobial peptide Bac7 by deep mutational scanning” (BMC Biology, 2022).

Test system: Escherichia coli TOP10
Experiment: shrunken log2 fold change of peptide-encoding DNA abundance (4.5 h post-induction vs induction); higher = less antimicrobial activity (less host growth inhibition)
Conditions: time post-induction: 4.5 h; library: site-saturation at positions 5, 18, 19, 20
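Further: peptides expressed intracellularly from a pBAD plasmid library in pooled LB shake-flask culture, induced with 0.3% L-arabinose, DNA abundance read by NGS, three biological replicates, DESeq2 with apeglm shrinkage.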

Sequence	shrunken log2 fold change
RRIRQRPPRLPRPRPRPDSYPRP	-0.127
RRIRQRPPRLPRPRPRPDTGPRP	-0.0117
RRIRQRPPRLPRPRPRPDVVPRP	-0.01
RRIRQRPPRLPRPRPRPDWQPRP	0.0854
RRIRQRPPRLPRPRPRPDWYPRP	-0.32
RRIRQRPPRLPRPRPRPEAVPRP	0.217
RRIRQRPPRLPRPRPRPEAWPRP	0.316
RRIRQRPPRLPRPRPRPECHPRP	0.268
RRIRQRPPRLPRPRPRPEGEPRP	0.0215
RRIRQRPPRLPRPRPRPEGFPRP	-0.0494
RRIRQRPPRLPRPRPRPEGMPRP	0.13
RRIRQRPPRLPRPRPRPEGWPRP	0.856
RRIRQRPPRLPRPRPRPEGYPRP	-0.0294
RRIRQRPPRLPRPRPRPEHHPRP	-0.136
RRIRQRPPRLPRPRPRPEIAPRP	-0.151
RRIRQRPPRLPRPRPRPEIHPRP	-0.0415
RRIRQRPPRLPRPRPRPEKFPRP	-0.029
RRIRQRPPRLPRPRPRPEKQPRP	-0.267
RRIRQRPPRLPRPRPRPEKSPRP	0.287
RRIRQRPPRLPRPRPRPELAPRP	0.577
RRIRQRPPRLPRPRPRPELLPRP	0.534
RRIRQRPPRLPRPRPRPELRPRP	-0.043
RRIRQRPPRLPRPRPRPEMDPRP	0.231
RRIRQRPPRLPRPRPRPENDPRP	-0.0134
RRIRQRPPRLPRPRPRPENFPRP	-0.00776

Sequence	shrunken log2 fold change
RRIRQRPPRLPRPRPRPEPPPRP	0.488
RRIRQRPPRLPRPRPRPEQCPRP	-0.0442
RRIRQRPPRLPRPRPRPEQLPRP	-0.0643
RRIRQRPPRLPRPRPRPEQWPRP	0.222
RRIRQRPPRLPRPRPRPERSPRP	0.0688
RRIRQRPPRLPRPRPRPESKPRP	0.0494
RRIRQRPPRLPRPRPRPESYPRP	-0.0748
RRIRQRPPRLPRPRPRPETAPRP	0.159
RRIRQRPPRLPRPRPRPETEPRP	0.0982
RRIRQRPPRLPRPRPRPEWFPRP	-0.00295
RRIRQRPPRLPRPRPRPFAMPRP	-0.132
RRIRQRPPRLPRPRPRPFCDPRP	-0.259
RRIRQRPPRLPRPRPRPFDAPRP	-0.0632
RRIRQRPPRLPRPRPRPFEIPRP	0.0112
RRIRQRPPRLPRPRPRPFFFPRP	0.0337
RRIRQRPPRLPRPRPRPFGAPRP	-0.0476
RRIRQRPPRLPRPRPRPFHMPRP	-0.0421
RRIRQRPPRLPRPRPRPFKNPRP	0.0784
RRIRQRPPRLPRPRPRPFLDPRP	-0.372
RRIRQRPPRLPRPRPRPFMCPRP	-0.371
RRIRQRPPRLPRPRPRPFNAPRP	-0.233
RRIRQRPPRLPRPRPRPFNRPRP	-0.0328
RRIRQRPPRLPRPRPRPFQCPRP	-0.247
RRIRQRPPRLPRPRPRPFQEPRP	-0.0113
RRIRQRPPRLPRPRPRPFQWPRP	0.0154

Sequence	shrunken log2 fold change
RRIRQRPPRLPRPRPRPFSQPRP	0.0178
RRIRQRPPRLPRPRPRPFSVPRP	-0.199
RRIRQRPPRLPRPRPRPFTNPRP	-0.0235
RRIRQRPPRLPRPRPRPFTSPRP	-0.00281
RRIRQRPPRLPRPRPRPFVKPRP	-0.234
RRIRQRPPRLPRPRPRPFWAPRP	0.289
RRIRQRPPRLPRPRPRPFWIPRP	-0.0587
RRIRQRPPRLPRPRPRPFWPPRP	0.083
RRIRQRPPRLPRPRPRPFWWPRP	0.0308
RRIRQRPPRLPRPRPRPFYIPRP	0.0172
RRIRQRPPRLPRPRPRPGAKPRP	0.177
RRIRQRPPRLPRPRPRPGASPRP	0.326
RRIRQRPPRLPRPRPRPGCLPRP	0.129
RRIRQRPPRLPRPRPRPGDMPRP	-0.164
RRIRQRPPRLPRPRPRPGDTPRP	-0.223
RRIRQRPPRLPRPRPRPGEAPRP	0.271
RRIRQRPPRLPRPRPRPGEIPRP	-0.366
RRIRQRPPRLPRPRPRPGFCPRP	0.159
RRIRQRPPRLPRPRPRPGGLPRP	0.28
RRIRQRPPRLPRPRPRPGIVPRP	0.0144
RRIRQRPPRLPRPRPRPGIYPRP	-0.0206
RRIRQRPPRLPRPRPRPGKYPRP	-0.17
RRIRQRPPRLPRPRPRPGLLPRP	-0.0475
RRIRQRPPRLPRPRPRPGNFPRP	0.0262
RRIRQRPPRLPRPRPRPGNTPRP	0.0649

Sequence	shrunken log2 fold change
RRIRQRPPRLPRPRPRPGPHPRP	0.0856
RRIRQRPPRLPRPRPRPGPIPRP	0.253
RRIRQRPPRLPRPRPRPGQCPRP	-0.156
RRIRQRPPRLPRPRPRPGQPPRP	0.385
RRIRQRPPRLPRPRPRPGSVPRP	0.241
RRIRQRPPRLPRPRPRPGVKPRP	0.0204
RRIRQRPPRLPRPRPRPGVNPRP	-0.343
RRIRQRPPRLPRPRPRPGWAPRP	0.113
RRIRQRPPRLPRPRPRPGWGPRP	0.957
RRIRQRPPRLPRPRPRPGWHPRP	0.0202
RRIRQRPPRLPRPRPRPGWKPRP	0.115
RRIRQRPPRLPRPRPRPHAYPRP	-0.352
RRIRQRPPRLPRPRPRPHCNPRP	-0.11
RRIRQRPPRLPRPRPRPHCSPRP	-0.104
RRIRQRPPRLPRPRPRPHDIPRP	0.0769
RRIRQRPPRLPRPRPRPHFNPRP	-0.324
RRIRQRPPRLPRPRPRPHGQPRP	0.184
RRIRQRPPRLPRPRPRPHIVPRP	-0.225
RRIRQRPPRLPRPRPRPHKMPRP	0.246
RRIRQRPPRLPRPRPRPHLPPRP	0.0272
RRIRQRPPRLPRPRPRPHMYPRP	-0.706
RRIRQRPPRLPRPRPRPHQEPRP	-0.00692
RRIRQRPPRLPRPRPRPHQSPRP	0.0405
RRIRQRPPRLPRPRPRPHQWPRP	0.323
RRIRQRPPRLPRPRPRPHSDPRP	0.0233

Sequence	shrunken log2 fold change
RRIRQRPPRLPRPRPRPHSNPRP	-0.0311
RRIRQRPPRLPRPRPRPHSPPRP	0.000964
RRIRQRPPRLPRPRPRPHSRPRP	-0.17
RRIRQRPPRLPRPRPRPHSSPRP	-0.271
RRIRQRPPRLPRPRPRPHSYPRP	0.0443
RRIRQRPPRLPRPRPRPHTNPRP	-0.814
RRIRQRPPRLPRPRPRPHWHPRP	-0.465
RRIRQRPPRLPRPRPRPHWIPRP	-0.452
RRIRQRPPRLPRPRPRPIDQPRP	-0.0135
RRIRQRPPRLPRPRPRPIFKPRP	-0.208
RRIRQRPPRLPRPRPRPIFTPRP	-0.123
RRIRQRPPRLPRPRPRPIGLPRP	-0.00141
RRIRQRPPRLPRPRPRPIHNPRP	-0.464
RRIRQRPPRLPRPRPRPIICPRP	0.0208
RRIRQRPPRLPRPRPRPIIDPRP	-0.199
RRIRQRPPRLPRPRPRPIIGPRP	-0.161
RRIRQRPPRLPRPRPRPINLPRP	-0.123
RRIRQRPPRLPRPRPRPIQVPRP	-0.201
RRIRQRPPRLPRPRPRPISKPRP	-0.0725
RRIRQRPPRLPRPRPRPITVPRP	-0.143
RRIRQRPPRLPRPRPRPIVFPRP	0.161
RRIRQRPPRLPRPRPRPIWRPRP	-0.068
RRIRQRPPRLPRPRPRPIYIPRP	-0.46
RRIRQRPPRLPRPRPRPIYLPRP	-0.163
RRIRQRPPRLPRPRPRPKADPRP	0.143

Sequence	shrunken log2 fold change
RRIRQRPPRLPRPRPRPKCYPRP	-0.234
RRIRQRPPRLPRPRPRPKFRPRP	0.0034
RRIRQRPPRLPRPRPRPKGIPRP	0.0655
RRIRQRPPRLPRPRPRPKHAPRP	0.401
RRIRQRPPRLPRPRPRPKHVPRP	-0.067
RRIRQRPPRLPRPRPRPKIAPRP	0.278
RRIRQRPPRLPRPRPRPKLSPRP	0.00202
RRIRQRPPRLPRPRPRPKMKPRP	-0.08
RRIRQRPPRLPRPRPRPKPWPRP	0.502
RRIRQRPPRLPRPRPRPKQAPRP	0.0135
RRIRQRPPRLPRPRPRPKQDPRP	0.0446
RRIRQRPPRLPRPRPRPKQPPRP	0.0884
RRIRQRPPRLPRPRPRPKQTPRP	-0.0544
RRIRQRPPRLPRPRPRPKRAPRP	0.0973
RRIRQRPPRLPRPRPRPKRHPRP	-0.0733
RRIRQRPPRLPRPRPRPKRIPRP	-0.0308
RRIRQRPPRLPRPRPRPKRVPRP	-0.154
RRIRQRPPRLPRPRPRPKSQPRP	0.32
RRIRQRPPRLPRPRPRPKVQPRP	0.0205
RRIRQRPPRLPRPRPRPKWYPRP	-0.118
RRIRQRPPRLPRPRPRPLAGPRP	0.166
RRIRQRPPRLPRPRPRPLAMPRP	0.294
RRIRQRPPRLPRPRPRPLFAPRP	0.013
RRIRQRPPRLPRPRPRPLFDPRP	-0.607
RRIRQRPPRLPRPRPRPLGSPRP	0.0483
